Source: publication PMC5341950, “Antitumor activity of a novel anti-vascular endothelial growth factor receptor-1 monoclonal antibody that does not interfere with ligand binding” (Oncotarget, 2016)

Experiments:
[1] = target: T1, recombinant VEGFR-1/Fc chimera (UniProt P17948 27-758); test: ELISA; 96-well Maxisorp plates coated with 10 ug/ml sVEGFR-1; binding buffer PBS with 3% BSA, 1 mM CaCl2, 0.5 mM MgCl2; 2 ug/ml VEGFR-1/Fc, 4 ug/ml VEGFR-2/Fc or 1 ug/ml NRP-1/Fc added; detection with alkaline phosphatase-conjugated anti-human Fc antibody, absorbance at 405 nm; selected wells pre-incubated with 5 ug/ml D16F7 mAb for 30 min at room temperature; details: both partners purified
T1 construct: Vascular endothelial growth factor receptor-1 (VEGFR-1), extracellular region, fused with the Fc region of human immunoglobulins; Bought chimera; source: bought: R&D Systems

[2] = target: T2, recombinant VEGFR-2/Fc chimera (UniProt P35968 20-764); test: as above; details: both partners purified
T2 construct: Vascular endothelial growth factor receptor-2 (VEGFR-2), extracellular region, fused with the Fc region of human immunoglobulins; Bought chimera; source: bought: R&D Systems
T2 sequence (P35968 20-764, stated change not applied): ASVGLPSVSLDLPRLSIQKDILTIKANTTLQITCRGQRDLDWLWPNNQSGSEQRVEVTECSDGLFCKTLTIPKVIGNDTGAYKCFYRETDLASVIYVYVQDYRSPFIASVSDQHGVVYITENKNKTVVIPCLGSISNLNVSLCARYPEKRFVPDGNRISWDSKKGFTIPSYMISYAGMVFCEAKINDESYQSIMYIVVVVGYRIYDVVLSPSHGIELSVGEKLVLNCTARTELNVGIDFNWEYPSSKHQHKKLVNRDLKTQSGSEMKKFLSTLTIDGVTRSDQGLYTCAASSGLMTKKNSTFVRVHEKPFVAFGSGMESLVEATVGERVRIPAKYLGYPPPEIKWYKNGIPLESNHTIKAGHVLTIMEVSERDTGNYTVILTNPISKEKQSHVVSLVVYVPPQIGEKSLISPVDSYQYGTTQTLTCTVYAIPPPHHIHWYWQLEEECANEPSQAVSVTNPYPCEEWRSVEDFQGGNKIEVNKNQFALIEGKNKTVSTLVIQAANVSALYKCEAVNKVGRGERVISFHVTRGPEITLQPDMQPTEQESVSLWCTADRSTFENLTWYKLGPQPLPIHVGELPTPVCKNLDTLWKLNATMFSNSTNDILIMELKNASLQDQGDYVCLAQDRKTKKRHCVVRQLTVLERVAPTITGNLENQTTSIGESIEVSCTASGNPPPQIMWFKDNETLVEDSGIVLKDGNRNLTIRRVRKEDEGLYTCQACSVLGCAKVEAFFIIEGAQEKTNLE

binding result [1]: binds
binding result [2]: binds
B1: native human soluble VEGFR-1 (sVEGFR-1) (receptor, UniProt P17948-2 27-687, looked up)
chain: SKLKDPELSLKGTQHIMQAGQTLHLQCRGEAAHKWSLPEMVSKESERLSITKSACGRNGKQFCSTLTLNTAQANHTGFYSCKYLAVPTSKKKETESAIYIFISDTGRPFVEMYSEIPEIIHMTEGRELVIPCRVTSPNITVTLKKFPLDTLIPDGKRIIWDSRKGFIISNATYKEIGLLTCEATVNGHLYKTNYLTHRQTNTIIDVQISTPRPVKLLRGHTLVLNCTATTPLNTRVQMTWSYPDEKNKRASVRRRIDQSNSHANIFYSVLTIDKMQNKDKGLYTCRVRSGPSFKSVNTSVHIYDKAFITVKHRKQQVLETVAGKRSYRLSMKVKAFPSPEVVWLKDGLPATEKSARYLTRGYSLIIKDVTEEDAGNYTILLSIKQSNVFKNLTATLIVNVKPQIYEKAVSSFPDPALYPLGSRQILTCTAYGIPQPTIKWFWHPCNHNHSEARCDFCSNNEESFILDADSNMGNRIESITQRMAIIEGKNKMASTLVVADSRISGIYICIASNKVGTVGRNISFYITDVPNGFHVNLEKMPTEGEDLKLSCTVNKFLYRDVTWILLRTVNNRTMHYSISKQKMAITKEHSITLNLTIMNVSLQDSGTYACRARNVYTGEEILQKKEITIRGEHCNKKAVFSRISKFKSTRNDCTTQSNVKH
notes: The methods call it 'Native human sVEGFR-1'; also called recombinant sVEGFR-1; source: bought: ReliaTech
